Reference: publication PMC8982139

What was measured:
[1] = target: C.1086 SOSIP gp140 (HIV-1 (clade C, C.1086)); test: SEC
[2] = target: C.1086 UFO-v2-RQH^173 gp140 trimer (UFO-v2 with K166R/H170Q, H173 kept) (HIV-1 (clade C, C.1086)); test: native gel or EMSA
[3] = target: C.1086 UFO-v2-RQH^173 gp140 trimer (UFO-v2 with K166R/H170Q, H173 kept) (HIV-1 (clade C, C.1086)); test: SEC
[4] = target: C.1086 UFO-v2-RQH^173 gp140 trimer (UFO-v2 with K166R/H170Q, H173 kept) (HIV-1 (clade C, C.1086)); test: negative-stain electron microscopy
[5] = target: C.1086 NFL (native flexibly linked, with I559P) gp140 trimer (HIV-1 (clade C, C.1086)); test: SEC
[6] = target: C.1086 UFO-v2-RQY^173 gp140 trimer (UFO-v2 with K166R/H170Q/H173Y) (HIV-1 (clade C, C.1086)); test: native gel or EMSA
[7] = target: C.1086 UFO-v2-RQY^173 gp140 trimer (UFO-v2 with K166R/H170Q/H173Y) (HIV-1 (clade C, C.1086)); test: negative-stain electron microscopy
[8] = target: C.1086 UFO-v2 gp140 trimer (UFO with E64K/T316W/A433P) (HIV-1 (clade C, C.1086)); test: SEC

C.1086 SOSIP gp140 gave a stoichiometry N [1] of 3.
“C.1086 UFO-v2-RQH^173 gp140 trimer (UFO-v2 with K166R/H170Q, H173 kept)” gave a stoichiometry N [2] of 3, a stoichiometry N [3] of 3 and a stoichiometry N [4] of 3.
In the case of “C.1086 NFL (native flexibly linked, with I559P) gp140 trimer”, the stoichiometry N [5] is reported as 3.
“C.1086 UFO-v2-RQY^173 gp140 trimer (UFO-v2 with K166R/H170Q/H173Y)” gave a stoichiometry N [6] of 3 and a stoichiometry N [7] of 3.
“C.1086 UFO-v2 gp140 trimer (UFO with E64K/T316W/A433P)” showed a stoichiometry N [8] of 3.
